Assays:
[1] = molecular target: PABPC1 RRM2 (human, UniProt P11940 100-190); test: ITC
[2] = molecular target: PABPC1 RRM3 (human, UniProt P11940 191-289); test: ITC
[3] = molecular target: PABPC1 RRM2/3 (human, UniProt P11940 100-289); test: ITC
[4] = molecular target: PABPC1 RRM1 (human, UniProt P11940 1-99); test: ITC
[5] = molecular target: PABPC1 RRM4 (human, UniProt P11940 290-371); test: ITC
[6] = molecular target: PABPC1 (full length) (human, UniProt P11940 1-636); test: SPR
[7] = molecular target: PABPC1 RRM1/2/3/4 (human, UniProt P11940 1-370); test: SPR
Sequence of PABPC1 RRM1/2/3/4 (P11940 1-370): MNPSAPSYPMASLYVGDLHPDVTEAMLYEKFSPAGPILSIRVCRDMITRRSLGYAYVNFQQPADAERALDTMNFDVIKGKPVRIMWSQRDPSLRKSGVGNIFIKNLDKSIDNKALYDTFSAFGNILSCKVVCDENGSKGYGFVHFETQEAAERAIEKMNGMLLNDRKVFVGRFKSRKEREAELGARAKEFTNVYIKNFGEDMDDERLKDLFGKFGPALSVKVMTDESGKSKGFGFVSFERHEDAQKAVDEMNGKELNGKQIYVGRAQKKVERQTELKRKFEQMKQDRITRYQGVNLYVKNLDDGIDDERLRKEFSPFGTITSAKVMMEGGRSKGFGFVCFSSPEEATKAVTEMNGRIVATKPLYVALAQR

Sequence of PABPC1 RRM2 (P11940 100-190): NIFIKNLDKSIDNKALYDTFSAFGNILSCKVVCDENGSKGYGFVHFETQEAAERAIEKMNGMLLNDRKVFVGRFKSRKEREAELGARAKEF
Sequence of PABPC1 RRM2/3 (P11940 100-289): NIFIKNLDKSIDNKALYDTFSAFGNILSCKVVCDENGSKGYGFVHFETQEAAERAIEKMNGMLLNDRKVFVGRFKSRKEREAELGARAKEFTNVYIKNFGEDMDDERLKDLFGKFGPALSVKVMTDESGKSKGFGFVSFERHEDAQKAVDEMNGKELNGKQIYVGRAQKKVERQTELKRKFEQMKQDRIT
Sequence of PABPC1 RRM1 (P11940 1-99): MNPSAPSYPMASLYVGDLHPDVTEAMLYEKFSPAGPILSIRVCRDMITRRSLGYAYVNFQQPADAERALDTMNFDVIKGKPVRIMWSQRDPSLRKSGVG
Sequence of PABPC1 RRM4 (P11940 290-371): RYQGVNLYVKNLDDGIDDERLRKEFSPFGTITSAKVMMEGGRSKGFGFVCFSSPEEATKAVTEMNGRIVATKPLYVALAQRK
Sequence of PABPC1 (full length) (P11940 whole entry): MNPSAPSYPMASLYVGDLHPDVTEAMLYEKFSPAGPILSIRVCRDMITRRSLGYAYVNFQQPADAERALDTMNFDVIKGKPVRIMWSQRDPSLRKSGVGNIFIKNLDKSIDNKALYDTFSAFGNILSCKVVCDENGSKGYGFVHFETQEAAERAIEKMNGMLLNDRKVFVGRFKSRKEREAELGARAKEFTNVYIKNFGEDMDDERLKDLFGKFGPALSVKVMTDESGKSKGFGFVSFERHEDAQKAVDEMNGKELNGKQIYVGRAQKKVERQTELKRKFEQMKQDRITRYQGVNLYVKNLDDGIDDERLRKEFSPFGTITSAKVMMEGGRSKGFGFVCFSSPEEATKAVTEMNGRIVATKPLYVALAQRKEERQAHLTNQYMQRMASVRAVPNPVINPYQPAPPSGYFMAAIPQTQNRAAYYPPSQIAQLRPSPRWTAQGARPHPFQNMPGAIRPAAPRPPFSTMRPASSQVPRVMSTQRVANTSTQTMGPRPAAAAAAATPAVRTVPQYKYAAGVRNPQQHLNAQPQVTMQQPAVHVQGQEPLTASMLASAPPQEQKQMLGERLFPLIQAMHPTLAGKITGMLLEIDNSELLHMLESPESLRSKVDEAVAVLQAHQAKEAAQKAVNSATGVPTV
Sequence of PABPC1 RRM3 (P11940 191-289): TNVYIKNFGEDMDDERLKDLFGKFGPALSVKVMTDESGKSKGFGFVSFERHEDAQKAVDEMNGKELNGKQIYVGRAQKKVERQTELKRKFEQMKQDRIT

Row | Binder | Kd [1] | Kd [2] | Kd [3] | binding result [4] | binding result [5] | binding result [6] | binding result [7]
1 | AAAAAAA (ssRNA) [A7] | 200 ± 40 µM | 4.7 ± 0.3 µM | 0.71 ± 0.1 µM | no binding | no binding | – | –
2 | AAAAAAAAAAAA (ssRNA) [A12] | 70 ± 3 µM | – | 0.0013 ± 0.0006 µM | – | – | – | –
3 | AAAAAAAAAAAAAAAAAAAAAAAA (ssRNA) [A24] | – | – | – | – | – | binds | binds

— publication PMC9019252
